Laboratory results as given in the supplement of paper PMC10567573.

B1: INTS3 (parent)
chain: AQLQALRQKEVDFCISLLRERFME
B2: CPOX (parent)
chain: HAPTIHFNYRYFEVEEADGNKQWW

Variants of: B1
Assay: protein stability index of a GFP-peptide fusion (GPS, HEK-293T) (PSI 1-6); higher = more stable
Conditions: c terminus: a fixed tail appended
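Further: lentivirally expressed fusions sorted by FACS into six bins by GFP to DsRed ratio, PSI derived from sequencing read proportions per bin multiplied by bin number.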

Variant	protein stability index
AQLQALRQKEVTFCISLLRERFME [D12T]	2.66
AQLQALRQKEVKFCISLLRERFME [D12K]	1.98
AQLQALRQKEVLFCISLLRERFME [D12L]	2.47
AQLQALRQKEVRFCISLLRERFME [D12R]	2.19
AQLQALRQKEVEFCISLLRERFME [D12E]	2.45
AQLQALRQKEVQFCISLLRERFME [D12Q]	2.12
AQLQALRQKEVCFCISLLRERFME [D12C]	3.46
AQLQALRQWEVDFCISLLRERFME [K9W]	1.45
AQLQALRQFEVDFCISLLRERFME [K9F]	2.45
AQLQALRQIEVDFCISLLRERFME [K9I]	3.07
AQLQALRPKEVDFCISLLRERFME [Q8P]	1.22
AQLQALRGKEVDFCISLLRERFME [Q8G]	2.55
AQLQALRNKEVDFCISLLRERFME [Q8N]	2.37
AQLQALRRKEVDFCISLLRERFME [Q8R]	1.91
AQLQALRQKEVDFCISLLRDRFME [E20D]	2.65
AQLQALRQKEVDFCISLLRKRFME [E20K]	2.09
AQLQALRQKERDFCISLLRERFME [V11R]	1.99
AQLQALRQKEADFCISLLRERFME [V11A]	2.23
AQAQALRQKEVDFCISLLRERFME [L3A]	2.15
AQCQALRQKEVDFCISLLRERFME [L3C]	1.76
AQSQALRQKEVDFCISLLRERFME [L3S]	1.76
AQLQALRQKEVDFCISLQRERFME [L18Q]	3.04

Variant	protein stability index
AQLQALRQKEVDFCISLHRERFME [L18H]	1.76
AQLQALRQKEVDFCISLPRERFME [L18P]	2.04
AQLQALRQKEVDFCISLKRERFME [L18K]	2.34
AQLQALRQKEVDFCISLGRERFME [L18G]	3.07
AQLQALRQKEVDFCISLMRERFME [L18M]	3.87
AQLQALRQKEVDFCLSLLRERFME [I15L]	2.84
AQLQALRQKEVDFCGSLLRERFME [I15G]	2.6
AQLQALRQKEVDFCSSLLRERFME [I15S]	1.67
AQLQALRQKEVDFCKSLLRERFME [I15K]	2.17
AQLQALRQKEVDFCRSLLRERFME [I15R]	1.71
AQLQALRQKEVDFCASLLRERFME [I15A]	1.62
AQLQALRQKEVDFCISLLRETFME [R21T]	3.99
AQLQALRQKEVDFCISLLRELFME [R21L]	2.34
AQLQALRQKEVDFCISLLREKFME [R21K]	2.5
AQLQCLRQKEVDFCISLLRERFME [A5C]	3.02
AQLQMLRQKEVDFCISLLRERFME [A5M]	1.51
AQLQDLRQKEVDFCISLLRERFME [A5D]	2.68
AQLQYLRQKEVDFCISLLRERFME [A5Y]	2.68
AILQALRQKEVDFCISLLRERFME [Q2I]	1.67
AWLQALRQKEVDFCISLLRERFME [Q2W]	2.42
AQLQALPQKEVDFCISLLRERFME [R7P]	2.23
AQLQALRQKEVDFCISLLNERFME [R19N]	3.64

Variant	protein stability index
AQLQALRQKEVDFCISLLMERFME [R19M]	2.43
AQLQALRQKEVDFCISLLPERFME [R19P]	2.21
AQLQALRQKEVDFCISLLSERFME [R19S]	3.43
AQLQALRQKEVDFCISLLRERFHE [M23H]	1.96
AQLQALRQKEVDFCISLLRERFAE [M23A]	2.78
AQLQALRQKEVDFCISLLRERFRE [M23R]	2.91
AQLQALRQKEVDFCISLLRERFSE [M23S]	1.42
AQLQALRQKEVDFCISLLRERFEE [M23E]	1.46
AQLQALRQKEVDFCISLLRERFMG [E24G]	1.92
AQLQALRQKEVDFCISLLRERFMR [E24R]	3.34
AQLQALRQKEVDFCISLLRERFMT [E24T]	1.77
AQLQALRQKEVDFCISLLRERWME [F22W]	3.21
AQLQALRQKEVDFCISLLRERKME [F22K]	1.92
AQLQALRQKEVDFCISLLRERHME [F22H]	1.18
AQLQALRQKEVDFCISLLRERSME [F22S]	1.31
AQLQALRQKEVDFCISLLRERMME [F22M]	3.62
AQLQALRQKEVDFCISLLRERQME [F22Q]	1.98
AQLQALRQKEVDFCISLLRERAME [F22A]	1.45
AQLNALRQKEVDFCISLLRERFME [Q4N]	2.4
AQLEALRQKEVDFCISLLRERFME [Q4E]	2.81
AQLDALRQKEVDFCISLLRERFME [Q4D]	2.04
AQLMALRQKEVDFCISLLRERFME [Q4M]	2.55

Variant	protein stability index
AQLQALRQKYVDFCISLLRERFME [E10Y]	1.49
AQLQALRQKMVDFCISLLRERFME [E10M]	2.87
AQLQALRQKFVDFCISLLRERFME [E10F]	2.15
AQLQALRQKNVDFCISLLRERFME [E10N]	1.32
AQLQALRQKEVDFCISGLRERFME [L17G]	2.3
AQLQALRQKEVDFCISDLRERFME [L17D]	2.56
AQLQALRQKEVDFCISFLRERFME [L17F]	1.9
AQLQALRQKEVDFCISYLRERFME [L17Y]	2.51
AQLQALRQKEVDFCISTLRERFME [L17T]	1.8
AQLQALRQKEVDFCISPLRERFME [L17P]	2.16
AQLQALRQKEVDYCISLLRERFME [F13Y]	5.35
AQLQALRQKEVDLCISLLRERFME [F13L]	1.64
AQLQALRQKEVDPCISLLRERFME [F13P]	2.3
AQLQALRQKEVDMCISLLRERFME [F13M]	2.52
AQLQALRQKEVDFNISLLRERFME [C14N]	1.52
AQLQALRQKEVDFQISLLRERFME [C14Q]	1.84
AQLQALRQKEVDFTISLLRERFME [C14T]	1.68
AQLQAHRQKEVDFCISLLRERFME [L6H]	2.11
AQLQALRQKEVDFCINLLRERFME [S16N]	3.32
AQLQALRQKEVDFCIPLLRERFME [S16P]	2.14
AQLQALRQKEVDFCIVLLRERFME [S16V]	1.11

Variants of: B2
Assay: as above
Conditions: c terminus: a fixed tail appended

Variant	protein stability index
HAPTIHFNYRYFMVEEADGNKQWW [E13M]	2.22
HAPTIHFNYRYFQVEEADGNKQWW [E13Q]	2.17
HAPTIHFNYRYFLVEEADGNKQWW [E13L]	1.41
HAPTIFFNYRYFEVEEADGNKQWW [H6F]	1.52
HAPTILFNYRYFEVEEADGNKQWW [H6L]	1.82
HAPTIAFNYRYFEVEEADGNKQWW [H6A]	2.19
HAPTIKFNYRYFEVEEADGNKQWW [H6K]	2.36
